Measurements taken from paper PMC4894720.

Experiments:
PPARδ;RXRα [1] = biological target: T1, PPARδ;RXRα (Homo sapiens;Homo sapiens?, UniProt Q03181;P19793 1-441;1-462, |); experiment: EMSA
PPARδ;RXRα [2] = biological target: T1, PPARδ;RXRα; experiment: competition

T1 sequence (Q03181 whole entry, stated change not applied, chain 1 of 2): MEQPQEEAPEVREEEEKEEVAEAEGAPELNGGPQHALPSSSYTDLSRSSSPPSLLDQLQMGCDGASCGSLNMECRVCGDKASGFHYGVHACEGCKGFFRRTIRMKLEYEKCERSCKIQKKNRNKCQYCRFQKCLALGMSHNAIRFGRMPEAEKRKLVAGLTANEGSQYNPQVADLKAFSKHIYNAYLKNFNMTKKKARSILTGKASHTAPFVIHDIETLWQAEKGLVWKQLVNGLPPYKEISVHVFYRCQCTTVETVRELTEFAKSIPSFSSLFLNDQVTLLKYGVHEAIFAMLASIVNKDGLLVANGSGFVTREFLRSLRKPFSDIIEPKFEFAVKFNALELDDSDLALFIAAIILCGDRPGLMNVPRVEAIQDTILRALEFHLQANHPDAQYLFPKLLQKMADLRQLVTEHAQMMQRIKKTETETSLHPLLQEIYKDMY
T1 sequence (P19793 whole entry, stated change not applied, chain 2 of 2): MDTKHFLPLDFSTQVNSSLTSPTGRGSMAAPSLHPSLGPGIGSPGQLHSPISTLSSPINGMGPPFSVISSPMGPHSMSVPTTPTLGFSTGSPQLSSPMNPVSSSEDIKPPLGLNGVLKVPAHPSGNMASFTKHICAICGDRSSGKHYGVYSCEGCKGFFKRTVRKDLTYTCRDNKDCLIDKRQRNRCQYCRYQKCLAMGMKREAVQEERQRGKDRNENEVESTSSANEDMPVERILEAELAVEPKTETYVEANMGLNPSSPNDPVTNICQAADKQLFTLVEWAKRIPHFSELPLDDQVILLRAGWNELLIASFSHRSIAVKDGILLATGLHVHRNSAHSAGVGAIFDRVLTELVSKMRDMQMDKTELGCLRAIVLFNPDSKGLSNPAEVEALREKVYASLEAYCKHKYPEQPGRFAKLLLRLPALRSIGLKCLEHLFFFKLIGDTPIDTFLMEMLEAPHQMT

B1: LDLR-PPRE(WT) biotin probe (dsDNA)
DNA 1: TCTCTGTGGCTTAGGGGTTCAAGTTCAACTGTGAAAGCCC
DNA 2: GGGCTTTCACAGTTGAACTTGAACCCCTAAGCCACAGAGA
binding result (PPARδ;RXRα [1]): binds

B2: LDLR-PPRE(WT) unlabeled competitor (dsDNA)
DNA 1: TCTCTGTGGCTTAGGGGTTCAAGTTCAACTGTGAAAGCCC
DNA 2: GGGCTTTCACAGTTGAACTTGAACCCCTAAGCCACAGAGA
binding result (PPARδ;RXRα [2]): binds
